Biological target: the molecule itself
Assay: negative-stain electron microscopy; sucrose gradient-purified VLPs from baculovirus-infected Sf9 cells, negatively stained with 3% uranyl acetate (pH 4.5), 23,000x

B1: Norovirus GII.4 Sydney capsid protein VP1 (virus-like particles) (natural protein)
chain: MKMASSDANPSDGSAANLVPEVNNEVMALEPVVGAAIAAPVAGQQNVIDPWIRNNFVQAPGGEFTVSPRNAPGEILWSAPLGPDLNPYLSHLARMYNGYAGGFEVQVILAGNAFTAGKVIFAAVPPNFPTEGLSPSQVTMFPHIVVDVRQLEPVLIPLPDVRNNFYHYNQSNDPTIKLIAMLYTPLRANNAGDDVFTVSCRVLTRPSPDFDFIFLVPPTVESRTKPFSVPVLTVEEMTNSRFPIPLEKLFTGPSSAFVVQPQNGRCTTDGVLLGTTQLSPVNICTFRGDVTHITGSRNYTMNLASQNWNDYDPTEEIPAPLGTPDFVGKIQGVLTQTTRTDGSTRGHKATVYTGSADFAPKLGRVQFETDTDRDFEANQNTKFTPVGVIQDGGTTHRNEPQQWVLPSYSGRNTHNVHLAPAVAPTFPGEQLLFFRSTMPGCSGYPNMDLDCLLPQEWVQYFYQEAAPAQSDVALLRFVNPDTGRVLFECKLHKSGYVTVAHTGQHDLVIPPNGYFRFDSWVNQFYTLAPMGNGTGRRRAV
notes: The VP1 gene was cloned; also called GII.4 SYD VLP; GII.4-2012 (Sydney); source: Sf9 insect cells (baculovirus, pFastBac1), purified by two discontinuous sucrose gradient ultracentrifugations
  binding result: binds
